A word on the EC50: it is the concentration needed to bring the measured effect to its halfway point. What is called Kd is the concentration at which binding is half-saturated. In general, koff refers to the first-order rate constant of dissociation. Usually kon stands for the second-order rate constant of association.

Consider five molecules from patent US20250084178A1 (ARCUS BIOSCIENCES, published 2025).

The target in assay [1] is T1, human CD39 expressed on the cell surface (human, UniProt P49961 1-510).
T1 construct: full-length human CD39 transfected into CHO-K1, or endogenous human CD39 on primary cells and cell lines, or human CD39 of knock-in mice; also called Human CD39-CHO-K1; cellular human CD39
T1 sequence: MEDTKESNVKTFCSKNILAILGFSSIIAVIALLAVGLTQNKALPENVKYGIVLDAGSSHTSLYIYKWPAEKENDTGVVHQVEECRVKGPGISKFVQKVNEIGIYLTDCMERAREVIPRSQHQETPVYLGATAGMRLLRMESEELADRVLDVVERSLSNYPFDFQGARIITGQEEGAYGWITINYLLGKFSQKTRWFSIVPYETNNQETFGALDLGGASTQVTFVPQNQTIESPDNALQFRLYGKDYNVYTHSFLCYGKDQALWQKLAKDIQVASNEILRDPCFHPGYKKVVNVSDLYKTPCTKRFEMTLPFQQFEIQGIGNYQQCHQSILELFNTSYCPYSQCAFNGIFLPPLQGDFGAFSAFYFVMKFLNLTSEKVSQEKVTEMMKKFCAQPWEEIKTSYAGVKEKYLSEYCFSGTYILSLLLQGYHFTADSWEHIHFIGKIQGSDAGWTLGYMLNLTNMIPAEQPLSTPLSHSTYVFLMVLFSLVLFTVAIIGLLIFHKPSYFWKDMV
Description: flow cytometry on purified human CD14+ monocytes, 400 uM ATP.

For assay [2], the target named is T1, human CD39 expressed on the cell surface. Description: cell-based or functional assay.
Assay [3] deals with T2, soluble His-tagged human CD39 ECD protein (human, UniProt P49961 38-478).
T2 construct: also called human CD39 ECD His-tagged antigen; Sino Biological Cat. No. 16020-H08B
T2 sequence: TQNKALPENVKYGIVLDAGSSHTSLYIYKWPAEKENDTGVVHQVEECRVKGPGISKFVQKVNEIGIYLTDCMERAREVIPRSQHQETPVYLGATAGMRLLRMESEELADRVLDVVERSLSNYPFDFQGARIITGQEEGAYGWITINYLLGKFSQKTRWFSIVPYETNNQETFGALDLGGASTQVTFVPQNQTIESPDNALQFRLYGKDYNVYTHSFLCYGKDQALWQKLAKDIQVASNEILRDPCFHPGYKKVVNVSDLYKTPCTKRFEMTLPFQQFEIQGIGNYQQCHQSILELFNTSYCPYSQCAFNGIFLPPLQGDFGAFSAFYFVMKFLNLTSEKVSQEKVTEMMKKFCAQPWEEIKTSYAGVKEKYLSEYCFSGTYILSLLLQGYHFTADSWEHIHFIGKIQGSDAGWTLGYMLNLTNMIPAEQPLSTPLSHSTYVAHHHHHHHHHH
Description: SPR (Biacore 8K), antibody captured via anti-human Fc, CD39 ECD analyte.

The target in assay [4] is T1, human CD39 expressed on the cell surface. The assay is described as follows: cell-based or functional assay. This is another data set of the same source.
In assay [5] the target is T3, cynomolgus monkey CD39 expressed on HEK-293 cells (cynomolgus monkey, UniProt P49961 5-510 (human entry)).
T3 construct: also called Cynomolgus Monkey CD39-HEK293
T3 chain: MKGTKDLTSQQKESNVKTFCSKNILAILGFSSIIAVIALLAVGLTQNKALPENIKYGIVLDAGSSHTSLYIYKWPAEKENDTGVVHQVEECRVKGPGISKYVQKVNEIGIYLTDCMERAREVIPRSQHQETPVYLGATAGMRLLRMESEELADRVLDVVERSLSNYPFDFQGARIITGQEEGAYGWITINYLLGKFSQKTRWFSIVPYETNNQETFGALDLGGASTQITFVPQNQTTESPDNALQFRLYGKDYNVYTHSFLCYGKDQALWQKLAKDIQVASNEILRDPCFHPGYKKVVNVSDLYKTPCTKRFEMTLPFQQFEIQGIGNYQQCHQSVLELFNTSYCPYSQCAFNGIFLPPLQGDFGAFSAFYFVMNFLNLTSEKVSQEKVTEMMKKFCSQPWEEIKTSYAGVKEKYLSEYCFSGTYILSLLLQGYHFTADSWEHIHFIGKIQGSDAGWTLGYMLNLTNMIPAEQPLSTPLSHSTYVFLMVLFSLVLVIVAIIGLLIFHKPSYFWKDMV
Description: FACS on HEK293 cells overexpressing cynomolgus CD39.

Assay [6] concerns the target T1, human CD39 expressed on the cell surface. The assay is described as follows: cell-based or functional assay. This is another data set of the same source.
The target is the same in assay [7]. Description: cell-based or functional assay. The source holds these as a separate data set.
Assay [8] shares this target. Description: FACS on CHO-K1 cells overexpressing human CD39.
Assay [9] shares this target. The assay is described as follows: flow cytometry on purified human CD14+ monocytes, 0 uM ATP. In general terms: Flow cytometry measures light scatter and fluorescence of single cells or particles in a stream.
In assay [10] the target is T2, soluble His-tagged human CD39 ECD …. Description: SPR (Biacore 8K), antibody captured via anti-human Fc, CD39 ECD analyte. This is another data set of the same source. In general terms: Surface plasmon resonance follows binding to a sensor surface in real time, without labels.
For assay [11], the target named is T1, human CD39 expressed on the cell surface. Description: cell-based or functional assay. This is another data set of the same source.

Where two headings read alike, the source gives them in different places.

B1: hu31.4_IGG4.P (antibody, human IgG4 S228P, kappa)
heavy: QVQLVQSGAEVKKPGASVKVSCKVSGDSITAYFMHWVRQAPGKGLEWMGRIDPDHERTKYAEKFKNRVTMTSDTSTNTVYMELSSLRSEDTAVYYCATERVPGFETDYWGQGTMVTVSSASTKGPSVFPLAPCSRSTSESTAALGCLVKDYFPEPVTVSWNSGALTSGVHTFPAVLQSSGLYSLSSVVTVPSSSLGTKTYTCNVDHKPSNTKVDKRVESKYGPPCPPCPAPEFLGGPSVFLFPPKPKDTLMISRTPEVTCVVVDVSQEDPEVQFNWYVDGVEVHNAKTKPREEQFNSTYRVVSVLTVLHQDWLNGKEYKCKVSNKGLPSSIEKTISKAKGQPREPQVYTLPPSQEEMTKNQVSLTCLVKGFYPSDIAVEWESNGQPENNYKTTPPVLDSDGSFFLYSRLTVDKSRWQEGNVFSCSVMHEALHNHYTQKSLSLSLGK
light: DIVLTQSPALAVSPGQRATITCRTQQTVDHYGTTYMNWYQQKPGQPPKLLIYLASSLASGVPARFSGSGSGTDFTLTINPVEADDTANYYCQQSRNLWTFGGGTKVEIKRTVAAPSVFIFPPSDEQLKSGTASVVCLLNNFYPREAKVQWKVDNALQSGNSQESVTEQDSKDSTYSLSSTLTLSKADYEKHKVYACEVTHQGLSSPVTKSFNRGEC
notes: humanized variant of antibody 31 (VH1 + VL1), IgG4 (S228P)
In the case of B1, in assay [1], the EC50 is 26000 pM. In assay [2], the “IC50, CD39 enzymatic inhibition on human monocytes, 20 uM ATP” value worked out at 590 pM and the “Max Inhibition (%), human monocytes, 20 uM ATP” value is 74%. Binding in assay [3] was put at a Kd of 176 pM. In assay [4], the “IC50, CD39 enzymatic inhibition on THP-1 cells, 20 uM ATP” value is 95 pM and the “Max Inhibition (%), THP-1 cells” value amounted to 73%. Further, a half-maximal effect in assay [5] (EC50) was put at 780 pM. Further, in assay [6], the “IC50, CD39 enzymatic inhibition on SK-MEL-5 cells, 20 uM ATP” value was found to be 1100 pM and the “Max Inhibition (%), SK-MEL-5 cells” value worked out at 71%. The “Human THP-1 CD39 inhibition IC50” value in [7] turned out to be 260 pM. Further, the EC50 in assay [8] was 1700 pM. This molecule also came in with an EC50 in assay [9] of 16000 pM.

B2: hu31.6_IGG4.P (antibody, human IgG4 S228P, kappa, V domains shown)
VH: EVQLVQSGAEVKKPGATVKISCKVSGDSITAYFMHWVQQAPGKGLEWMGRIDPDHERTKYAEKFKNRVTITADTSTNTVYMELSSLRSEDTAVYYCATERVPGFETDYWGQGVMVTVSS
VL: DIVLTQSPALAVSPGQRATITCRTQQTVDHYGTTYMNWYQQKPGQPPKLLIYLASSLASGVPARFSGSGSGTDFTLTINPVEADDTANYYCQQSRNLWTFGGGTKVEIKR
notes: humanized variant of antibody 31 (VH2 + VL1), IgG4 (S228P)
In the case of B2, in [3], the Kd turned out to be 613 pM, the koff is 0.000684 s⁻¹ and the kon stood at 1.12e+06 M⁻¹ s⁻¹. The molecule also registered an EC50 in assay [5] of 810 pM. In addition, the “Human THP-1 CD39 inhibition IC50” value in [7] worked out at 300 pM. The same molecule gave an EC50 in assay [8] of 1690 pM.

B3: hu31.7_IGG4.P (antibody, human IgG4 S228P, kappa, V domains shown)
VH: B2 VH
VL: DIVMTQSPDLAVSLGERATINCRTQQTVDHYGTTYMNWYQQKPGQPPKLLIYLASSLASGVPDRFSGSGSGTDFTLTISSLQAEDVAVYYCQQSRNLWTFGGGTKVEIKR
notes: humanized variant of antibody 31 (VH2 + VL2), IgG4 (S228P)
Regarding B3, in assay [3], the equilibrium dissociation constant (Kd) turned out to be 496 pM, the koff amounted to 0.000615 s⁻¹ and the association rate constant (kon) stood at 1.24e+06 M⁻¹ s⁻¹. Further, it took 1010 pM to reach a half-maximal effect in assay [5] (EC50). Moreover, the “Human THP-1 CD39 inhibition IC50” value in assay [7] came out at 250 pM. The EC50 in [8] is 1830 pM.

B4: hu39.2_IGG4.P (antibody, human IgG4 S228P, kappa)
heavy: not shown
light: DIVLTQSPASLAVSPGQRATITCRASEGVKSYMHWYQQKPGQPPKLLIYKASNLASGVPARFSGSGSGTDFTLTINPVEADDTANYYCQQSWNDPTFGQGTKLEIKRTVAAPSVFIFPPSDEQLKSGTASVVCLLNNFYPREAKVQWKVDNALQSGNSQESVTEQDSKDSTYSLSSTLTLSKADYEKHKVYACEVTHQGLSSPVTKSFNRGEC
notes: humanized variant of antibody 39 (VH1 + VL1), IgG4 (S228P)
In turn, B4 registered a Kd in assay [10] of 93.6 pM. Besides, in [11], the “IC50, CD39 enzymatic inhibition on human monocytes, 400 uM ATP” value worked out at 140 pM and the “Max Inhibition (%), human monocytes, 400 uM ATP” value worked out at 80%.

B5: hu39.4_IGG4.P (antibody, human IgG4 S228P, kappa)
heavy: not shown
light: B4 light
notes: humanized variant of antibody 39 (VH3 + VL1), IgG4 (S228P)
Take B5: the EC50 in assay [1] turned out to be 10000 pM. In [2], the “IC50, CD39 enzymatic inhibition on human monocytes, 20 uM ATP” value was determined as 130 pM and the “Max Inhibition (%), human monocytes, 20 uM ATP” value was 71%. Also, in assay [4], the “IC50, CD39 enzymatic inhibition on THP-1 cells, 20 uM ATP” value came out at 64 pM and the “Max Inhibition (%), THP-1 cells” value turned out to be 76%. In [6], the “IC50, CD39 enzymatic inhibition on SK-MEL-5 cells, 20 uM ATP” value is 130 pM and the “Max Inhibition (%), SK-MEL-5 cells” value amounted to 60%. The same molecule returned a Kd in assay [10] of 185 pM. Besides, in [11], the “IC50, CD39 enzymatic inhibition on human monocytes, 400 uM ATP” value is 450 pM and the “Max Inhibition (%), human monocytes, 400 uM ATP” value amounted to 73%.
